Source: paper PMC6753076

Molecular target: PELI1 (UniProt Q96FA3)
Experiment: anti-Flag co-immunoprecipitation, immunoblot
Conditions: reference: wild type; sites T382

HPD (from UniProt P32754) T382A
binding against the reference: lost
